This series concerns the target TFAP2 (AP-2) (UniProt P05549). The series can be described thus: DNA pull-down, SILAC MS and immunoblot. As to conditions: PBB: 150 mM NaCl, 50 mM Tris/HCl pH 8.0, 10 mM MgCl2, 0.5% NP-40, protease inhibitor; 200 ug SILAC nuclear extract, 2 h at 4 C (automated: 8 C); elution 16 mM …. For orientation: In western blotting, separated proteins are transferred to a membrane and probed.

One sequence from paper PMC3459973 can be followed below.

Sequence of TFAP2 (AP-2) (P05549 whole entry): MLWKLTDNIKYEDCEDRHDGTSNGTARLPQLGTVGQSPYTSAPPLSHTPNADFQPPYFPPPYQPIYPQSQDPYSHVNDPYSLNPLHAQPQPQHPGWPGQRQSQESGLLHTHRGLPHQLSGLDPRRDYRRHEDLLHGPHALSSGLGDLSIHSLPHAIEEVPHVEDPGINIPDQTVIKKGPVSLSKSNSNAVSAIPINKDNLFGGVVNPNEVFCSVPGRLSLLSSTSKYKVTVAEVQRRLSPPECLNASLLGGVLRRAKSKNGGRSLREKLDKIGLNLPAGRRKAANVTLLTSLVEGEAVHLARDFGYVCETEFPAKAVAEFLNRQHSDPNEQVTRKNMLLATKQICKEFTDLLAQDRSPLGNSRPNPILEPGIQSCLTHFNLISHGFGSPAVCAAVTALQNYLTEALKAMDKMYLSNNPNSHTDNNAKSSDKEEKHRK

As for “AACAAAACTGCAGGATCGAACTGACCGCCCGGGGCACGTGTC / TTGACACGTGCCCCGGGCGGTCAGTTCGATCCTGCAGTTTTG [AP2_C]”, the binding signal (SILAC ratio C/A) was 10.
